± gives the standard deviation of the averaged measurements.
How the values were obtained:
hTERT-HMEC = test: percentage of EdU-negative (G0-arrested) nuclei per well, 72 h; higher = more G0 arrest; settings: reference: sequence is the full UniProt precursor, the tested protein was the secreted form or ectodomain
MCF7 = test: as above; settings: reference: sequence is the full UniProt precursor, the tested protein was the secreted form or ectodomain
[1] = protein concentration 0.0295 µM
[2] = protein concentration 0.0225 µM
[3] = protein concentration 0.0301575 µM
[4] = protein concentration 0.301575 µM
[5] = protein concentration 0.0182675 µM
[6] = protein concentration 0.182675 µM
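Also: secreted proteins added to cultured cells, EdU pulse at the end, nuclei found by Hoechst imaging, EdU status from nuclear versus surrounding ring intensity ratio, PBS as neutral control.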

## MLGLPWKGGLSWALLLLLLGSQILLIYAWHFHEQRDCDEHNVMARYLPATVEFAVHTFNQQSKDYYAYRLGHILNSWKEQVESKTVFSMELLLGRTRCGKFEDDIDNCHFQESTELNNTFTCFFTISTRPWMTQFSLLNKTCLEGFH [Q9H4G1]
hTERT-HMEC; [1]
  percentage of EdU-negative: 4.64 ± 0.079%
hTERT-HMEC; protein concentration 0.295 µM
  percentage of EdU-negative: 4.42 ± 0.36%
MCF7; [1]
  percentage of EdU-negative: 27.1 ± 2.6%
MCF7; protein concentration 0.295 µM
  percentage of EdU-negative: 28.28 ± 0.082%

## MLGPCMLLLLLLLGLRLQLSLGIIPVEEENPDFWNREAAEALGAAKKLQPAQTAAKNLIIFLGDGMGVSTVTAARILKGQKKDKLGPEIPLAMDRFPYVALSKTYNVDKHVPDSGATATAYLCGVKGNFQTIGLSAAARFNQCNTTRGNEVISVMNRAKKAGKSVGVVTTTRVQHASPAGTYAHTVNRNWYSDADVPASARQEGCQDIATQLISNMDIDVILGGGRKYMFRMGTPDPEYPDDYSQGGTRLDGKNLVQEWLAKRQGARYVWNRTELMQASLDPSVTHLMGLFEPGDMKYEIHRDSTLDPSLMEMTEAALRLLSRNPRGFFLFVEGGRIDHGHHESRAYRALTETIMFDDAIERAGQLTSEEDTLSLVTADHSHVFSFGGYPLRGSSIFGLAPGKARDRKAYTVLLYGNGPGYVLKDGARPDVTESESGSPEYRQQSAVPLDEETHAGEDVAVFARGPQAHLVHGVQEQTFIAHVMAFAACLEPYTACDLAPPAGTTDAAHPGRSVVPALLPLLAGTLLLLETATAP
hTERT-HMEC; [2]
  percentage of EdU-negative: 5.09 ± 0.15%
hTERT-HMEC; protein concentration 0.225 µM
  percentage of EdU-negative: 5.14 ± 0.97%
MCF7; [2]
  percentage of EdU-negative: 27.28 ± 0.045%
MCF7; protein concentration 0.225 µM
  percentage of EdU-negative: 29.68 ± 0.2%

## MLGQVVTLILLLLLKVYQGKGCQGSADHVVSISGVPLQLQPNSIQTKVDSIAWKKLLPSQNGFHHILKWENGSLPSNTSNDRFSFIVKNLSLLIKAAQQQDSGLYCLEVTSISGKVQTATFQVFVFESLLPDKVEKPRLQGQGKILDRGRCQVALSCLVSRDGNVSYAWYRGSKLIQTAGNLTYLDEEVDINGTHTYTCNVSNPVSWESHTLNLTQDCQNAHQEFRFWPFLVIIVILSALFLGTLACFCVWRRKRKEKQSETSPKEFLTIYEDVKDLKTRRNHEQEQTFPGGGSTIYSMIQSQSSAPTSQEPAYTLYSLIQPSRKSGSRKRNHSPSFNSTIYEVIGKSQPKAQNPARLSRKELENFDVYS [Q9BZW8]
hTERT-HMEC; [2]
  percentage of EdU-negative: 5.21 ± 0.31%
hTERT-HMEC; protein concentration 0.225 µM
  percentage of EdU-negative: 6.56 ± 1.1%
MCF7; [2]
  percentage of EdU-negative: 25.82 ± 0.11%
MCF7; protein concentration 0.225 µM
  percentage of EdU-negative: 26.1 ± 1.3%

## MLGVLELLLLGAAWLAGPARGQNETEPIVLEGKCLVVCDSNPTSDPTGTALGISVRSGSAKVAFSAIRSTNHEPSEMSNRTMIIYFDQVLVNIGNNFDSERSTFIAPRKGIYSFNFHVVKVYNRQTIQVSLMLNGWPVISAFAGDQDVTREAASNGVLIQMEKGDRAYLKLERGNLMGGWKYSTFSGFLVFPL
hTERT-HMEC; [2]
  percentage of EdU-negative: 5.16 ± 0.97%
hTERT-HMEC; protein concentration 0.225 µM
  percentage of EdU-negative: 5.71 ± 0.24%
MCF7; [2]
  percentage of EdU-negative: 24.7 ± 1.6%
MCF7; protein concentration 0.225 µM
  percentage of EdU-negative: 24.9 ± 2.3%

## MLHLLALFLHCLPLASGDYDICKSWVTTDEGPTWEFYACQPKVMRLKDYVKVKVEPSGITCGDPPERFCSHENPYLCSNECDASNPDLAHPPRLMFDKEEEGLATYWQSITWSRYPSPLEANITLSWNKTVELTDDVVMTFEYGRPTVMVLEKSLDNGRTWQPYQFYAEDCMEAFGMSARRARDMSSSSAHRVLCTEEYSRWAGSKKEKHVRFEVRDRFAIFAGPDLRNMDNLYTRLESAKGLKEFFTLTDLRMRLLRPALGGTYVQRENLYKYFYAISNIEVIGRCKCNLHANLCSMREGSLQCECEHNTTGPDCGKCKKNFRTRSWRAGSYLPLPHGSPNACATAGSFGNCECYGHSNRCSYIDFLNVVTCVSCKHNTRGQHCQHCRLGYYRNGSAELDDENVCIECNCNQIGSVHDRCNETGFCECREGAAGPKCDDCLPTHYWRQGCYPNVCDDDQLLCQNGGTCLQNQRCACPRGYTGVRCEQPRCDPADDDGGLDCDRAPGAAPRPATLLGCLLLLGLAARLGR [Q96CW9]
hTERT-HMEC; [2]
  percentage of EdU-negative: 5.1 ± 0.37%
hTERT-HMEC; protein concentration 0.225 µM
  percentage of EdU-negative: 5.79 ± 0.16%
MCF7; [2]
  percentage of EdU-negative: 28.5 ± 0.47%
MCF7; protein concentration 0.225 µM
  percentage of EdU-negative: 28.61 ± 0.091%

## MLIFWTITLFLLGAAKGKEVCYEDLGCFSDTEPWGGTAIRPLKILPWSPEKIGTRFLLYTNENPNNFQILLLSDPSTIEASNFQMDRKTRFIIHGFIDKGDESWVTDMCKKLFEVEEVNCICVDWKKGSQATYTQAANNVRVVGAQVAQMLDILLTEYSYPPSKVHLIGHSLGAHVAGEAGSKTPGLSRITGLDPVEASFESTPEEVRLDPSDADFVDVIHTDAAPLIPFLGFGTNQQMGHLDFFPNGGESMPGCKKNALSQIVDLDGIWAGTRDFVACNHLRSYKYYLESILNPDGFAAYPCTSYKSFESDKCFPCPDQGCPQMGHYADKFAGRTSEEQQKFFLNTGEASNFARWRYGVSITLSGRTATGQIKVALFGNKGNTHQYSIFRGILKPGSTHSYEFDAKLDVGTIEKVKFLWNNNVINPTLPKVGATKITVQKGEEKTVYNFCSEDTVREDTLLTLTPC
hTERT-HMEC; [3]
  percentage of EdU-negative: 5.42 ± 0.23%
hTERT-HMEC; [4]
  percentage of EdU-negative: 5.14 ± 0.29%
MCF7; [3]
  percentage of EdU-negative: 25.8 ± 0.77%
MCF7; [4]
  percentage of EdU-negative: 26.6 ± 1.5%

## MLKALFLTMLTLALVKSQDTEETITYTQCTDGYEWDPVRQQCKDIDECDIVPDACKGGMKCVNHYGGYLCLPKTAQIIVNNEQPQQETQPAEGTSGATTGVVAASSMATSGVLPGGGFVASAAAVAGPEMQTGRNNFVIRRNPADPQRIPSNPSHRIQCAAGYEQSEHNVCQDIDECTAGTHNCRADQVCINLRGSFACQCPPGYQKRGEQCVDIDECTIPPYCHQRCVNTPGSFYCQCSPGFQLAANNYTCVDINECDASNQCAQQCYNILGSFICQCNQGYELSSDRLNCEDIDECRTSSYLCQYQCVNEPGKFSCMCPQGYQVVRSRTCQDINECETTNECREDEMCWNYHGGFRCYPRNPCQDPYILTPENRCVCPVSNAMCRELPQSIVYKYMSIRSDRSVPSDIFQIQATTIYANTINTFRIKSGNENGEFYLRQTSPVSAMLVLVKSLSGPREHIVDLEMLTVSSIGTFRTSSVLRLTIIVGPFSF
hTERT-HMEC; [5]
  percentage of EdU-negative: 4.75 ± 0.46%
hTERT-HMEC; [6]
  percentage of EdU-negative: 15.7 ± 1.1%
MCF7; [5]
  percentage of EdU-negative: 28 ± 2.2%
MCF7; [6]
  percentage of EdU-negative: 29.1 ± 1.9%

— the supplement of paper PMC11316812
